From the supplement of paper PMC7125110
± gives the standard error. This sample holds only a part of the variants without activity.

B1: glmS ribozyme (parent)
chain: AUAAAAGCGCCAGAACUACAGAAAUGUAGUUGACGAGGAGGAGGUUUAUCGAAUUUUCGGCGGAUGCCUCCAAA

Variants of: B1
Assay: self-cleavage kobs at 2500 uM GlcN6P; higher = faster cleavage; RNA array
Details: with glucosamine-6-phosphate
Method in brief: (§1)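 Weighted Michaelis–Menten fits across concentrations supplied kcat and KM, based on kobs from one- or two-exponential decay fits to normalised per-tile medians. The data came from barcoded ribozyme variants transcribed in situ by E. coli RNA polymerase on sequenced MiSeq chips and tracked at 37 °C by a hybridised Cy3 probe. Glucosamine-6-phosphate (40 μM to 10 mM) in HEPES/KCl/Mg(OAc)2 buffer was flowed in.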

Variant	self-cleavage kobs at 2500 uM GlcN6P [s⁻¹]
A6U A36G U46C A52G C67U	< 1e-05
A6U C50G U55G A64G C67U	0.000132 ± 3.6e-05
C8U A12C A15C A33C U45G C50G	< 1e-05
A15U C16G U30A A33G G59A	< 1e-05
A12U A14G G32U	0.000861 ± 0.00015
C8A G35U A52U	< 1e-05
C11U A33U G59A	0.000169 ± 6.1e-05
A6U U47A A53G G59U	< 1e-05
C8U C16G G29C	< 1e-05
C8A G32U G59A	< 1e-05
A14G G41A G62U	< 1e-05
A33G A52G G63A	< 1e-05
C11A G35U C58G	< 1e-05
U30C C61U U65A	< 1e-05
C11U G60A G62U C67G	< 1e-05
A14C C16A G63A	< 1e-05
U45C U56C G63A	< 1e-05
G7C A15U U31C	< 1e-05
A33G A53U G60U C71G	< 1e-05
U46G C58U C68G	0.000337 ± 0.00012
G41U G44C U55G G59U	< 1e-05

Variant	self-cleavage kobs at 2500 uM GlcN6P [s⁻¹]
C34A G41U A42C	< 1e-05
G38C G41U A53C C68G	< 1e-05
U46A U56G C67G	0.000172 ± 4.6e-05
G13U U31C G44U A64U	< 1e-05
G9U A52U C58G	< 1e-05
G29A U30C A48U C58U	< 1e-05
A6G G40U A52G A53U	< 1e-05
A36U G63A	< 1e-05
A12U A48U C70G	0.000115 ± 5e-05
A33C G51A U54C	< 1e-05
G29U G32A A53C	0.000152 ± 3e-05
G32C U47A A64G C68A	< 1e-05
G35U G40A G41U U45G A53G	< 1e-05
A12U U30G U49C	< 1e-05
C10G G41A C58G	< 1e-05
G13C G43C U57G	< 1e-05
A52G U55A	0.000757 ± 0.00015
A6U U31G G41U	< 1e-05
G40C A52G U55G	4.2e-05 ± 1.1e-05
C11G C50G C58A C61A	0.000322 ± 0.00011
C8U G9C C11G A14C U45G C50G C71G	< 1e-05

Variant	self-cleavage kobs at 2500 uM GlcN6P [s⁻¹]
G13U A48U G59C G62U	< 1e-05
A6G G40A G41C	< 1e-05
C10A C11U C70A	0.000126 ± 4.3e-05
U47C U57C C71G	< 1e-05
C11G G13C C50A A53G U55A	< 1e-05
C34U G35A G44C U54A U65G	< 1e-05
C34A U69A	< 1e-05
A12C U55A C58A	8.77e-05 ± 1.8e-05
U30C U55A U69G	7.73e-05 ± 1.4e-05
U30A C50A C68U	4.96e-05 ± 2.3e-05
C16A G43U A53U G60A C68A	< 1e-05
G35U A48G C50G	0.000328 ± 0.00011
G13U C16U A39U A53G	0.000359 ± 0.00012
A33C G37C U55C	< 1e-05
G32C U65G C68G	< 1e-05
G9A G40U G63A A64U	< 1e-05
A52G A64G C68U	6.71e-05 ± 2.2e-05
G7U C8G U49A	< 1e-05
G13U A33G U45C G63A	< 1e-05
G35U U45C G51C G59U	< 1e-05
G51U A52U U54G U55C	< 1e-05

Variant	self-cleavage kobs at 2500 uM GlcN6P [s⁻¹]
A33G G35A G44U G59C C70U	< 1e-05
G29A U31G U54G	6.58e-05 ± 3.2e-05
A42U C58U U65G	< 1e-05
C11G U30C G37U	< 1e-05
A39C A42C G66A	0.00014 ± 4.5e-05
G9U A14G C61A A64G C70G	6.76e-05 ± 2.1e-05
C11U U30A G37C U49A	< 1e-05
A15G A48C C50U	< 1e-05
G37A G40A U56G	5.62e-05 ± 1.8e-05
G38C G41U A42G	< 1e-05
G7A G51U U54G G63A	< 1e-05
G9A A14G G41U	< 1e-05
A15G G44U C50U A64U	< 1e-05
G41C G51U U69C	< 1e-05
G7U G32C G40U U45G	< 1e-05
C16U G37U A42G	< 1e-05
A48C C50G A64C	< 1e-05
G38U C50G G63C	7.85e-05 ± 2.7e-05
U31G A39U A64C	6.17e-05 ± 2.3e-05
A6C C34G C50G	4.66e-05 ± 2.1e-05

Variants of: B1
Assay: self-cleavage kobs at 10000 uM GlcN6P; higher = faster cleavage; RNA array
Details: with glucosamine-6-phosphate
Method in brief: as §1

Variant	self-cleavage kobs at 10000 uM GlcN6P [s⁻¹]
A12U A14G G32U	0.00275 ± 0.00043
C11U A33U G59A	0.000262 ± 5.4e-05
G29U G32A A53C	0.000364 ± 0.0001
A52G U55A	0.00185 ± 0.00032
U31G A39U A64C	4.91e-05 ± 1.3e-05
